The test concerns the target T1, human Uba7 (human, UniProt P41226 1-1012, Cys599 crosslinked to UBE2L6 Cys86 (in the cryo-EM complexes only)).
T1 construct: also called hUba7; E1; source: E. coli BL21 codon plus or Hi5 insect cells (baculovirus), purified (Ni-NTA, Superdex 200, Enrich Q); not shown: His6 (insect cell construct), N-terminal, cleaved
T1 sequence: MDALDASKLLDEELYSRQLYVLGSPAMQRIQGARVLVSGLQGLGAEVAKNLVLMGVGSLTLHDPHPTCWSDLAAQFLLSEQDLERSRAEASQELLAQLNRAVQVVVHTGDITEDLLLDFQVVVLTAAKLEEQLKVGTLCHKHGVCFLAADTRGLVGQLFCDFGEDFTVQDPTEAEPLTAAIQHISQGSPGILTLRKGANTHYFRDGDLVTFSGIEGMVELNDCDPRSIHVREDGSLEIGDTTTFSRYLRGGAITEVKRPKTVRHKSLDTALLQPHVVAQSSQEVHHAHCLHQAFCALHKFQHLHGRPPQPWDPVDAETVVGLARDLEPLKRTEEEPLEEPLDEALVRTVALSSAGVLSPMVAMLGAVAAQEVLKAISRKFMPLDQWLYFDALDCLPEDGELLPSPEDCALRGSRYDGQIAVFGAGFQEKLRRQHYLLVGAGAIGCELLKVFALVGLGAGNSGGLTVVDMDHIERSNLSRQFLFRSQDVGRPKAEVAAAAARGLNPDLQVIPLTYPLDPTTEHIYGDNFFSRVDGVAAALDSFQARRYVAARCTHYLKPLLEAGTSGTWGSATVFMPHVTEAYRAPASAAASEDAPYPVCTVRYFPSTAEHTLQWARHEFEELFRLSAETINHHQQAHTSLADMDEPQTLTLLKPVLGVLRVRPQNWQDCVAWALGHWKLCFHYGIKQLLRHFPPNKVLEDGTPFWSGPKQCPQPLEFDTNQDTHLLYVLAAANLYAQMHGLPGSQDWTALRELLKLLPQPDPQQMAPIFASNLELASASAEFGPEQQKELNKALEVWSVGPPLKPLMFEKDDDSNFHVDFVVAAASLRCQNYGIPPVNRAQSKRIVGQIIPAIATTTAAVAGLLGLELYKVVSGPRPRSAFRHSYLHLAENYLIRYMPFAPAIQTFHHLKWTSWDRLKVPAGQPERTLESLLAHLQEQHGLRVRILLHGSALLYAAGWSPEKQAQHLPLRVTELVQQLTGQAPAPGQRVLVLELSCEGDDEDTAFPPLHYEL
The test is described as follows: cryo-EM structure; double-loaded Uba7-UBE2L6-ISG15(t)/ISG15(a) mimetic: ISG15 C76S isopeptide-linked to UBE2L6 L121K, UBE2L6 Cys86 (Aldrithiol-4 activated) crosslinked to Uba7 Cys599, then 1.2 molar excess of ISG15, ATP and Mg2+ for 30 min at 4 °C; frozen at 3.0 mg/ml. The settings on record: both partners purified.

B1: UBE2L6 (C98S/C102S/L121K) (enzyme, human)
chain: MASMRVVKELEDLQKKPPPYLRNLSSDDANVLVWHALLLPDQPPYHLKAFNLRISFPPEYPFKPPMIKFTTKIYHPNVDENGQICLPIISSENWKPSTKTSQVLEALNVLVNRPNIREPKRMDLADLLTQNPELFRKNAEEFTLRFGVDRPS
modifications: Lys121 (L121K) isopeptide-linked to Gly157 of ISG15 C76S; Cys86 activated with Aldrithiol-4 and crosslinked to Uba7 Cys599
notes: The 6XHis-tag was cleaved with TEV protease 'when required'; source: E. coli BL21 codon plus, purified (Ni-NTA, Superdex 75, Enrich Q)
With B1, the binding result is “binds”.

Source of the values: paper PMC10409785 (Nature Communications, 2023).
